For data set [1], the system named is recurrent/refractory small cell lung cancer (SCLC). The following applies: single agent; cited from earlier work.
The nature of data set [2]: Adverse health effects in treated tumor-bearing mice. Type of data set: in vivo, female NOD/SCID mice. The following applies: tumor-bearing NOD/SCID mice treated intraperitoneally. The procedure: (§1) A GBM PDX tumor line was grown subcutaneously in the flanks of female NOD/SCID mice using art-recognized techniques. Tumor volumes and mouse weights were monitored once or twice per week. When tumor volumes reached 150-250 mm^3, mice were randomly assigned to treatment groups and injected intraperitoneally with SC16.56 PDB3 or an isotype control human IgG1.PDB3. SC16.56 PDB3 comprises the same humanized antibody as found in Rova-t but employs a different PBD cytotoxin. Following treatment, tumor volumes and mouse weights were monitored until tumors exceeded 1000 mm^3 or mice became sick.

Data set [3] concerns GB8 tumors (GBM PDX tumor line). In words: Glioblastoma PDX tumor growth suppression in immunodeficient mice. Type of data set: in vivo, female NOD/SCID mice. The following applies: single dose 0.2 mg/kg, intraperitoneal, subcutaneous GB8 tumors, 20 days post-treatment (FIG. 3). The procedure:
as §1

Take rovalpituzumab tesirine [Rova-T]: the clinical activity entry in data set [1] was “clinically demonstrated single agent activity”.

B1: SC16.56 PBD3: anti-DLL3 ADC; comprises the same humanized antibody as found in Rova-T but employs a different PBD cytotoxin (conjugate, chains of the INN, looked up)
VH: QVQLVQSGAEVKKPGASVKVSCKASGYTFTNYGMNWVRQAPGQGLEWMGWINTYTGEPTYADDFKGRVTMTTDTSTSTAYMELRSLRSDDTAVYYCARIGDSSPSDYWGQGTLVTVSS
VL: EIVMTQSPATLSVSPGERATLSCKASQSVSNDVVWYQQKPGQAPRLLIYYASNRYTGIPARFSGSGSGTEFTLTISSLQSEDFAVYYCQQDYTSPWTFGQGTKLEIK
modifications: PBD3 cytotoxin conjugate
Regarding B1, the adverse health effects result in data set [2] was “did not exhibit any adverse health effects beyond those typically seen in immunodeficient, tumor-bearing NOD/SCID mice”. The “tumor growth (tumor volume)” value in data set [3] is given as “tumor suppression”.
